Reference: the supplement of paper PMC10724198
± gives the standard deviation of the averaged measurements.

Tests used:
Saccharomyces cerevisiae [1] = test: protein stability index of tFT-peptide fusion (C-terminal peptide) (PSI (0-1 scale)); higher = more stable (slower turnover); details: genetic background: wild type; temperature: 30 C
Saccharomyces cerevisiae [2] = test: as above
Experimental: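 MPS profiling in S. cerevisiae of the tFT-X12 degron library: putative degron peptides plus stable controls, 12 aa, fused to the C-terminus of a sfGFP-mCherry timer. Cells are FACS-sorted into 8 mCherry/sfGFP bins and deep-sequenced. PSI runs from 0 (unstable) to 1 (stable). Backgrounds are wild type, das1Δ and doa10Δ at 30 °C, and wild type, das1Δ, cdc34-1 and cdc53-1 at 37 °C; 2-3 technical replicates each.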

[3] = genetic background: cdc34-1, temperature: 37 C
[4] = genetic background: cdc53-1, temperature: 37 C
[5] = genetic background: das1 deletion, temperature: 30 C
[6] = genetic background: das1 deletion, temperature: 37 C
[7] = genetic background: doa10 deletion, temperature: 30 C
[8] = genetic background: wild type, temperature: 30 C
[9] = genetic background: wild type, temperature: 37 C
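Further: PSI is a weighted mean of sequencing reads over stability bins, variants kept only with over 10 reads, mCherry proximal and sfGFP distal, peptide attached via GGGS linker.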

Sequence | protein stability index (Saccharomyces cerevisiae [1]) | protein stability index (Saccharomyces cerevisiae [2]; [3]) | protein stability index (Saccharomyces cerevisiae [2]; [4]) | protein stability index (Saccharomyces cerevisiae [2]; [5]) | protein stability index (Saccharomyces cerevisiae [2]; [6]) | protein stability index (Saccharomyces cerevisiae [2]; [7]) | protein stability index (Saccharomyces cerevisiae [2]; [8]) | protein stability index (Saccharomyces cerevisiae [2]; [9])
ILLHSFFSFYLL | 0.30744 ± 1.3e-05 | 0.484 ± 0.0054 | 0.503 ± 0.0068 | 0.508 ± 0.027 | 0.5933 ± 0.0054 | 0.289 ± 0.009 | 0.269 ± 0.023 | 0.419 ± 0.006
ILLYCVLIDPYS | 0.344 ± 0.032 | 0.203 ± 0.008 | 0.2634 ± 0.0013 | 0.221 ± 0.043 | 0.352 ± 0.0093 | 0.219 ± 0.011 | 0.229 ± 0.025 | 0.361 ± 0.057
ILVLKFLRLLSA | 0.448 ± 0.031 | 0.525 ± 0.015 | 0.555 ± 0.024 | 0.444 ± 0.034 | 0.563 ± 0.012 | 0.343 ± 0.017 | 0.365 ± 0.028 | 0.5261 ± 0.0015
ISPCLVRLWYRI | 0.175 ± 0.033 | 0.462 ± 0.053 | 0.574 ± 0.021 | 0.544 ± 0.018 | 0.673 ± 0.019 | 0.103 ± 0.028 | 0.102 ± 0.037 | 0.168 ± 0.026
IVCYFFAFSFMW | 0.362 ± 0.0046 | 0.288 ± 0.014 | 0.399 ± 0.058 | 0.293 ± 0.028 | 0.462 ± 0.0081 | 0.2859 ± 0.0019 | 0.288 ± 0.025 | 0.425 ± 0.024
IVEVNCILMWIF | 0.4398 ± 0.00029 | 0.423 ± 0.024 | 0.489 ± 0.026 | 0.365 ± 0.021 | 0.532 ± 0.029 | 0.345 ± 0.037 | 0.369 ± 0.041 | 0.469 ± 0.044
IVGVLAVLVRPV | 0.466 ± 0.023 | 0.484 ± 0.029 | 0.561 ± 0.019 | 0.369 ± 0.03 | 0.5371 ± 0.0051 | 0.34 ± 0.011 | 0.376 ± 0.023 | 0.51 ± 0.017
IVIFQTAYVVRI | 0.213 ± 0.0041 | 0.159 ± 0.0011 | 0.233 ± 0.013 | 0.164 ± 0.011 | 0.238 ± 0.012 | 0.225 ± 0.034 | 0.173 ± 0.0086 | 0.234 ± 0.01
IVVVVRLSPILG | 0.331 ± 0.034 | 0.293 ± 0.016 | 0.397 ± 0.099 | 0.27 ± 0.015 | 0.4272 ± 0.003 | 0.228 ± 0.013 | 0.274 ± 0.016 | 0.401 ± 0.011
IWIHSVGVECTS | 0.486 ± 0.019 | 0.487 ± 0.011 | 0.494 ± 0.033 | 0.359 ± 0.036 | 0.544 ± 0.0068 | 0.315 ± 0.0044 | 0.358 ± 0.032 | 0.5186 ± 0.005
IWYGLFWLRFWV | 0.51 ± 0.055 | 0.513 ± 0.044 | 0.572 ± 0.018 | 0.497 ± 0.018 | 0.586 ± 0.015 | 0.444 ± 0.018 | 0.423 ± 0.023 | 0.5368 ± 0.0047
IYNIIFKYRTIT | 0.127 ± 0.084 | 0.525 ± 0.036 | 0.581 ± 0.014 | 0.575 ± 0.0086 | 0.661 ± 0.073 | 0.0671 ± 0.0022 | 0.0987 ± 0.019 | 0.118 ± 0.016
KCWSGTVMVRLG | 0.34 ± 0.0068 | 0.675 ± 0.062 | 0.72 ± 0.017 | 0.596 ± 0.013 | 0.723 ± 0.032 | 0.164 ± 0.0099 | 0.191 ± 0.036 | 0.4516 ± 0.0042
KERHRNKRKQIA | 0.342 ± 0.038 | 0.659 ± 0.011 | 0.741 ± 0.021 | 0.66 ± 0.022 | 0.7046 ± 0.004 | 0.173 ± 0.0077 | 0.205 ± 0.035 | 0.43 ± 0.046
KERNKISQRKLT | 0.434 ± 0.024 | 0.65 ± 0.009 | 0.654 ± 0.034 | 0.666 ± 0.015 | 0.714 ± 0.028 | 0.143 ± 0.023 | 0.185 ± 0.018 | 0.416 ± 0.013
KFKRLTKFYARQ | 0.311 ± 0.0089 | 0.555 ± 0.031 | 0.684 ± 0.029 | 0.676 ± 0.032 | 0.618 ± 0.011 | 0.108 ± 0.0012 | 0.132 ± 0.027 | 0.334 ± 0.017
KHKIIGKYQRQI | 0.46 ± 0.021 | 0.704 ± 0.13 | 0.751 ± 0.02 | 0.629 ± 0.033 | 0.7236 ± 0.0012 | 0.319 ± 0.017 | 0.338 ± 0.017 | 0.576 ± 0.015
KIIKERIRRIKI | 0.243 ± 0.032 | 0.653 ± 0.013 | 0.632 ± 0.1 | 0.591 ± 0.032 | 0.71254 ± 0.0005 | 0.153 ± 0.0034 | 0.181 ± 0.049 | 0.286 ± 0.076
KIRGYLMPLTLL | 0.503 ± 0.037 | 0.56 ± 0.037 | 0.6 ± 0.0051 | 0.557 ± 0.027 | 0.709 ± 0.014 | 0.4659 ± 0.0027 | 0.432 ± 0.0072 | 0.548 ± 0.028
KKKKNIKIKKQI | 0.276 ± 0.054 | 0.74 ± 0.17 |  | 0.646 ± 0.034 | 0.711 ± 0.084 | 0.184 ± 0.025 | 0.215 ± 0.023 | 0.336 ± 0.12

Sequence | protein stability index (Saccharomyces cerevisiae [1]) | protein stability index (Saccharomyces cerevisiae [2]; [3]) | protein stability index (Saccharomyces cerevisiae [2]; [4]) | protein stability index (Saccharomyces cerevisiae [2]; [5]) | protein stability index (Saccharomyces cerevisiae [2]; [6]) | protein stability index (Saccharomyces cerevisiae [2]; [7]) | protein stability index (Saccharomyces cerevisiae [2]; [8]) | protein stability index (Saccharomyces cerevisiae [2]; [9])
KLKTSHILIKQT | 0.3668 ± 0.0036 | 0.665 ± 0.059 | 0.729 ± 0.0099 | 0.606 ± 0.029 | 0.716 ± 0.024 | 0.1562 ± 0.0013 | 0.223 ± 0.033 | 0.452 ± 0.011
KLSLRYLLVSLI | 0.188 ± 0.049 | 0.513 ± 0.013 | 0.602 ± 0.045 | 0.456 ± 0.018 | 0.606 ± 0.011 | 0.101 ± 0.0044 | 0.115 ± 0.025 | 0.153 ± 0.012
KMIVWKESIKRE | 0.535 ± 0.15 | 0.689 ± 0.065 | 0.7388 ± 0.001 | 0.633 ± 0.029 | 0.723 ± 0.015 | 0.63 ± 0.014 | 0.667 ± 0.069 | 0.693 ± 0.022
KNGNVEILIKCT | 0.4881 ± 0.0027 | 0.625 ± 0.081 | 0.6278 ± 0.0034 | 0.485 ± 0.018 | 0.631 ± 0.0084 | 0.377 ± 0.022 | 0.425 ± 0.034 | 0.58 ± 0.018
KRNLLYNIIVWI | 0.299 ± 0.046 | 0.404 ± 0.024 | 0.476 ± 0.051 | 0.357 ± 0.025 | 0.524 ± 0.021 | 0.171 ± 0.0049 | 0.179 ± 0.016 | 0.288 ± 0.0061
KTSVLLCVSTSF | 0.441 ± 0.019 | 0.633 ± 0.0073 | 0.645 ± 0.021 | 0.427 ± 0.018 | 0.628 ± 0.015 | 0.442 ± 0.046 | 0.443 ± 0.016 | 0.628 ± 0.015
LAINVRRELLFF | 0.235 ± 0.043 | 0.613 ± 0.0093 | 0.723 ± 0.021 | 0.643 ± 0.029 | 0.7665 ± 0.007 | 0.134 ± 0.001 | 0.148 ± 0.032 | 0.235 ± 0.007
LARRASCFWVRC | 0.452 ± 0.0072 | 0.671 ± 0.015 | 0.721 ± 0.011 | 0.633 ± 0.026 | 0.71798 ± 0.00063 | 0.251 ± 0.019 | 0.303 ± 0.017 | 0.559 ± 0.011
LAVVCIHAVSSF | 0.418 ± 0.077 | 0.51 ± 0.042 | 0.538 ± 0.069 | 0.352 ± 0.018 | 0.533 ± 0.0038 | 0.333 ± 0.02 | 0.373 ± 0.042 | 0.518 ± 0.038
LCAFLKLFILII | 0.239 ± 0.016 | 0.0906 ± 0.018 | 0.141 ± 0.076 | 0.181 ± 0.051 | 0.325 ± 0.017 | 0.235 ± 0.027 | 0.141 ± 0.045 | 0.23 ± 0.034
LCARVCITFNIV | 0.457 ± 0.016 | 0.517 ± 0.033 | 0.578 ± 0.054 | 0.458 ± 0.013 | 0.4975 ± 0.0038 | 0.4011 ± 0.004 | 0.438 ± 0.035 | 0.481 ± 0.014
LCWLVHFFLWVS | 0.288 ± 0.018 | 0.35 ± 0.081 | 0.431 ± 0.0079 | 0.312 ± 0.024 | 0.442 ± 0.023 | 0.253 ± 0.013 | 0.238 ± 0.017 | 0.393 ± 0.0092
LESYGLRDSTSG | 0.621 ± 0.27 | 0.641 ± 0.05 | 0.651 ± 0.032 | 0.638 ± 0.099 | 0.741 ± 0.042 | 0.65 ± 0.0099 | 0.681 ± 0.044 | 0.69 ± 0.018
LFCVCFYGRIFL | 0.423 ± 0.0066 | 0.443 ± 0.017 | 0.556 ± 0.038 | 0.335 ± 0.028 | 0.526 ± 0.018 | 0.328 ± 0.018 | 0.334 ± 0.022 | 0.5 ± 0.011
LFFCYRVFLLVF | 0.185 ± 0.019 | 0.132 ± 0.01 | 0.152 ± 0.0027 | 0.199 ± 0.023 | 0.243 ± 0.006 | 0.121 ± 0.016 | 0.106 ± 0.026 | 0.1719 ± 0.00093
LFFGFFLIYFLG | 0.353 ± 0.044 | 0.428 ± 0.048 | 0.4839 ± 0.0013 | 0.384 ± 0.034 | 0.495 ± 0.0074 | 0.266 ± 0.014 | 0.278 ± 0.018 | 0.424 ± 0.032
LFFVVFFLLFLL | 0.411 ± 0.025 | 0.402 ± 0.0091 | 0.446 ± 0.028 | 0.36 ± 0.026 | 0.477 ± 0.029 | 0.389 ± 0.0099 | 0.337 ± 0.023 | 0.453 ± 0.026
LFFWFMYLRRLI | 0.172 ± 0.033 | 0.252 ± 0.019 | 0.238 ± 0.0044 | 0.403 ± 0.041 | 0.524 ± 0.11 | 0.22 ± 0.0085 | 0.151 ± 0.01 | 0.164 ± 0.0084
LFHSFFLYCLMS | 0.482 ± 0.015 | 0.56 ± 0.017 | 0.5796 ± 0.0031 | 0.616 ± 0.042 | 0.662 ± 0.04 | 0.5838 ± 0.0054 | 0.541 ± 0.022 | 0.6 ± 0.045
